According to patent US8629241B2, “Alpha helical mimics, their uses and methods for their production” (The University of Queensland, priority 2004, dated 2014):
Read-outs that look alike come from different tables or passages of the source. Each block holds one compound with its values, some of them ahead of it. Where a SMILES comes first, the peptide text is derived from it. Bridges are numbered along the chain shown (N, C = ends). [ ]: non-standard residue; d: D form. Orn = NCCC[C@H](N)C(=O)O

Assay type: physicochemical
Settings: for [θ]207: molar elipticity at 207 nm; for percentage helicities: equation 2b with k˜4, assuming 8 has 100% helicity
Description: Circular Dichroism (CD) was performed on peptides having SEQ ID NOs: 8 to 14 and 18 to 31, using methods described above. The molar elipticities at 222 nm, 208 nm and 190 nm, ratios of elipticities at 222 nm/208 nm and relative helicity are shown in Tables 6 and 7.
Assuming that mean alpha helix content (fH) is linearly related to elipticity at 222 nm, or in our case 215 nm ([θ]obs215), then the equation for calculating helix content is: fH=([θ]obs215−[θ]C)/([θ]∞215−[θ]C) (1) Luo and Baldwin^22 determined that the random coil ([θ]C) and infinite alpha helix ([θ]∞222) molar elipticities are temperature dependent based on the equations: [θ]C=2220−53T (2a) [θ]∞215=(−44000+250T)(1−k/Np) (2b) where T is temperature in degrees Celsius, Np is the number of peptide units, and k is a finite length correction.
CD was performed on peptides having one [SEQ ID NO: 8] or more than one modular macrocycle [SEQ ID NOs: 46 and 47], as compared with corresponding linear peptides, Ac[KARAD]n—NH2 where n=1 [SEQ ID NO: 14], n=2 [SEQ ID NO: 54] and n=3 [SEQ ID NO: 55]. The molar elipticities at 222 nm, 208 nm and 190 nm, ratios of elipticities at 222 nm/208 nm and percentage helicity are shown in Table 8.
CD experiments were performed on a Jasco Model J-710 spectropolarimeter which was routinely calibrated with (1S)-(+)-10-camphorsulfonic acid. Temperature control was achieved using a Neslab RTE-111 circulating water bath. Spectra were recorded in a 0.1 cm Jasco cell between 310-185 nm at 50 nm/min with a band width of 1.0 nm, response time of 2 sec, resolution step width of 0.1 nm and sensitivity of 20, 50 or 100 mdeg. Each spectrum represents the average of 5 scans with smoothing to reduce noise. Peptide samples for CD spectroscopy were dissolved in distilled water (˜1 mg/mL). Each stock solution was diluted to a final concentration of 50 μM in 10 mM sodium phosphate buffer (pH7.4), with or without additives (2,2,2-trifluoroethanol (TFE) or guanidine.HCl). Guanidine.HCl denaturation experiments were performed according to Creighton^105.
1D ^1H NMR spectra were then recorded with presaturation and a relaxation delay (d1) of 30 seconds to allow for full relaxation of peptide and DSS^1H signals to facilitate accurate integration of proton signals with S/N>250:1. This method provides reproducible concentrations within ±2%.
CD data in ellipticity was converted to mean peptide ellipticity using the equation: [θ]=θ/(10×C×Np×1) where θ is the ellipticity in millidegrees, C is the peptide molar concentration (M), 1 is the cell path length (cm), and Np is the number of peptide units (ie. pentapeptides […], 10 & 11 Np=5, 12 Np=4.)
Relative helicities were employed to allow scaling of compounds by dividing the [θ]obs215(8)/[θ]obs215(x) for pentapeptides, and [θ]obs215(24)/[θ]obs215(x) for hexapeptides.

[1] = Table 8, one or more cyclic pentapeptide modules versus linear peptides
[2] = [θ]215 relative to SEQ ID NO: 8, 10 mM phosphate buffer, pH 7.4, 25° C
[3] = molar elipticity at 190 nm, 10 mM phosphate buffer, pH 7.4, 25° C
[4] = 10 mM phosphate buffer, pH 7.4, 25° C
[5] = molar elipticity at 215 nm, 10 mM phosphate buffer, pH 7.4, 25° C
[6] = ratio of elipticities, 10 mM phosphate buffer, pH 7.4, 25° C
[7] = cyclic hexapeptides 23-31, 10 mM phosphate buffer pH 7.4 at 25° C
[8] = θ215 relative to SEQ ID NO: 24, 10 mM phosphate buffer pH 7.4 at 25° C

θ222/θ208 (Table 8): 0.21
[θ]192 [1]: −12237 degcm^2dmol^−1residue^−1
[θ]208 [1]: −8552 degcm^2dmol^−1residue^−1
[θ]222 [1]: −1836 degcm^2dmol^−1residue^−1
% helicity (fH × 100, [θ∞H]222 = −44000, k = 2.6): 3%
Compound: CC(=O)N[C@@H](CCCCN)C(=O)N[C@@H](C)C(=O)N[C@@H](CCCNC(=N)N)C(=O)N[C@@H](C)C(=O)N[C@@H](CC(=O)O)C(=O)N[C@@H](CCCCN)C(=O)N[C@@H](C)C(=O)N[C@@H](CCCNC(=N)N)C(=O)N[C@@H](C)C(=O)N[C@@H](CC(=O)O)C(N)=O [SEQ ID NO: 54] (Ac-KARADKARAD-NH2)

Compound: Ac-(cyclo-1,5)-[DARAK]-NH2 (Ac-DARAK-NH2; lactam 1-5; SMILES CC(=O)N[C@H]1CC(=O)NCCCC[C@@H](C(N)=O)NC(=O)[C@H](C)NC(=O)[C@H](CCCNC(=N)N)NC(=O)[C@H](C)NC1=O) [SEQ ID NO: 9]
Relative helicity [2]: 0.60
[θ]190 [3]: 15600 deg.cm^2.dmol^−1.residue^−1
[θ]207 [4]: −10705 deg.cm^2.dmol^−1.residue^−1
[θ]215 [5]: −7723 deg.cm^2.dmol^−1.residue^−1
θ215/θ207 [6]: 0.72

Compound: Ac-(cyclo-1,5)-[DARAO]-NH2 (Ac-DARA[Orn]-NH2; lactam 1-5; SMILES CC(=O)N[C@H]1CC(=O)NCCC[C@@H](C(N)=O)NC(=O)[C@H](C)NC(=O)[C@H](CCCNC(=N)N)NC(=O)[C@H](C)NC1=O) [SEQ ID NO: 13]
Relative helicity [2]: 0.37
[θ]190 [3]: −6954 deg.cm^2.dmol^−1.residue^−1
[θ]207 [4]: −9748 deg.cm^2.dmol^−1.residue^−1
[θ]215 [5]: −4671 deg.cm^2.dmol^−1.residue^−1
θ215/θ207 [6]: 0.48

Compound: Ac-(cyclo-1,5)-[EARAK]-NH2 (Ac-EARAK-NH2; lactam 1-5; SMILES CC(=O)N[C@H]1CCC(=O)NCCCC[C@@H](C(N)=O)NC(=O)[C@H](C)NC(=O)[C@H](CCCNC(=N)N)NC(=O)[C@H](C)NC1=O) [SEQ ID NO: 11]
Relative helicity [2]: 0.58
[θ]190 [3]: 20735 deg.cm^2.dmol^−1.residue^−1
[θ]207 [4]: −12803 deg.cm^2.dmol^−1.residue^−1
[θ]215 [5]: −7430 deg.cm^2.dmol^−1.residue^−1
θ215/θ207 [6]: 0.58

Compound: Ac-(cyclo-1,5)-[EARAO]-NH2 (Ac-EARA[Orn]-NH2; lactam 1-5; SMILES CC(=O)N[C@H]1CCC(=O)NCCC[C@@H](C(N)=O)NC(=O)[C@H](C)NC(=O)[C@H](CCCNC(=N)N)NC(=O)[C@H](C)NC1=O) [SEQ ID NO: 19]
Relative helicity [2]: 0
[θ]190 [3]: −11256 deg.cm^2.dmol^−1.residue^−1
[θ]207 [4]: −1917 deg.cm^2.dmol^−1.residue^−1
[θ]215 [5]: 2442 deg.cm^2.dmol^−1.residue^−1
θ215/θ207 [6]: −1.27

Compound: Ac-(cyclo-1,5)-[KARAD]-OH (Ac-KARAD-OH; lactam 1-5; SMILES CC(=O)N[C@H]1CCCCNC(=O)C[C@@H](C(=O)O)NC(=O)[C@H](C)NC(=O)[C@H](CCCNC(=N)N)NC(=O)[C@H](C)NC1=O) [SEQ ID NO: 20]
Relative helicity [2]: 0
Relative helicity ([θ]215 relative to SEQ ID NO: 8, in 0.01 M HCl pH 2): 0.06
[θ]190 [3]: −13953 deg.cm^2.dmol^−1.residue^−1
[θ]190 (molar elipticity at 190 nm, in 0.01 M HCl pH 2): −2659 deg.cm^2.dmol^−1.residue^−1
[θ]207 [4]: −5643 deg.cm^2.dmol^−1.residue^−1
[θ]207 (in 0.01 M HCl pH 2): −3195 deg.cm^2.dmol^−1.residue^−1
[θ]215 [5]: 207 deg.cm^2.dmol^−1.residue^−1
[θ]215 (molar elipticity at 215 nm, in 0.01 M HCl pH 2): −625 deg.cm^2.dmol^−1.residue^−1
θ215/θ207 [6]: −0.04
θ215/θ207 (ratio of elipticities, in 0.01 M HCl pH 2): 0.20

Compound: Ac-(cyclo-1,5)-[KARAE]-NH2 (Ac-KARAE-NH2; lactam 1-5; SMILES CC(=O)N[C@H]1CCCCNC(=O)CC[C@@H](C(N)=O)NC(=O)[C@H](C)NC(=O)[C@H](CCCNC(=N)N)NC(=O)[C@H](C)NC1=O) [SEQ ID NO: 10]
Relative helicity [2]: 0.08
[θ]190 [3]: −10611 deg.cm^2.dmol^−1.residue^−1
[θ]207 [4]: −3393 deg.cm^2.dmol^−1.residue^−1
[θ]215 [5]: −1068 deg.cm^2.dmol^−1.residue^−1
θ215/θ207 [6]: 0.31

Compound: Ac-(cyclo-1,5)-[OARAD]-NH2 (Ac-[Orn]ARAD-NH2; lactam 1-5; SMILES CC(=O)N[C@H]1CCCNC(=O)C[C@@H](C(N)=O)NC(=O)[C@H](C)NC(=O)[C@H](CCCNC(=N)N)NC(=O)[C@H](C)NC1=O) [SEQ ID NO: 12]
Relative helicity [2]: 0
[θ]190 [3]: −4613 deg.cm^2.dmol^−1.residue^−1
[θ]207 [4]: −2077 deg.cm^2.dmol^−1.residue^−1
[θ]215 [5]: 92 deg.cm^2.dmol^−1.residue^−1
θ215/θ207 [6]: −0.04

Compound: Ac-(cyclo-1,5)-[OARAE]-NH2 (Ac-[Orn]ARAE-NH2; lactam 1-5; SMILES CC(=O)N[C@H]1CCCNC(=O)CC[C@@H](C(N)=O)NC(=O)[C@H](C)NC(=O)[C@H](CCCNC(=N)N)NC(=O)[C@H](C)NC1=O) [SEQ ID NO: 18]
Relative helicity [2]: 0
[θ]190 [3]: −16228 deg.cm^2.dmol^−1.residue^−1
[θ]207 [4]: −3368 deg.cm^2.dmol^−1.residue^−1
[θ]215 [5]: 741 deg.cm^2.dmol^−1.residue^−1
θ215/θ207 [6]: −0.22

Compound: Ac-(cyclo-2,6)-R[KAAAD]-NH2 (Ac-RKAAAD-NH2; lactam 2-6; SMILES CC(=O)N[C@@H](CCCNC(=N)N)C(=O)N[C@H]1CCCCNC(=O)C[C@@H](C(N)=O)NC(=O)[C@H](C)NC(=O)[C@H](C)NC(=O)[C@H](C)NC1=O) [SEQ ID NO: 23]
Molar ellipticity at 207 nm [7]: −13684 deg.cm^2.dmol^−1.residue^−1
[θ]190 [7]: 39352 deg.cm^2.dmol^−1.residue^−1
[θ]215 [7]: −13537 deg.cm^2.dmol^−1.residue^−1
θ215/θ207 [7]: 0.99
percentage helicities: 83%
Relative helicity [8]: 0.91

Compound: Ac-(cyclo-2,6)-R[KAFAD]-NH2 (Ac-RKAFAD-NH2; lactam 2-6; SMILES CC(=O)N[C@@H](CCCNC(=N)N)C(=O)N[C@H]1CCCCNC(=O)C[C@@H](C(N)=O)NC(=O)[C@H](C)NC(=O)[C@H](Cc2ccccc2)NC(=O)[C@H](C)NC1=O) [SEQ ID NO: 27]
Molar ellipticity at 207 nm [7]: −9087 deg.cm^2.dmol^−1.residue^−1
[θ]190 [7]: 27718 deg.cm^2.dmol^−1.residue^−1
[θ]215 [7]: −8644 deg.cm^2.dmol^−1.residue^−1
θ215/θ207 [7]: 0.95
percentage helicities: 53%
Relative helicity [8]: 0.76

Compound: Ac-(cyclo-2,6)-R[KAGAD]-NH2 (Ac-RKAGAD-NH2; lactam 2-6; SMILES CC(=O)N[C@@H](CCCNC(=N)N)C(=O)N[C@H]1CCCCNC(=O)C[C@@H](C(N)=O)NC(=O)[C@H](C)NC(=O)CNC(=O)[C@H](C)NC1=O) [SEQ ID NO: 28]
Molar ellipticity at 207 nm [7]: −7678 deg.cm^2.dmol^−1.residue^−1
[θ]190 [7]: 10036 deg.cm^2.dmol^−1.residue^−1
[θ]215 [7]: −4874 deg.cm^2.dmol^−1.residue^−1
θ215/θ207 [7]: 0.63
Relative helicity [8]: 0.32

Compound: Ac-(cyclo-2,6)-R[KALAD]-NH2 (Ac-RKALAD-NH2; lactam 2-6; SMILES CC(=O)N[C@@H](CCCNC(=N)N)C(=O)N[C@H]1CCCCNC(=O)C[C@@H](C(N)=O)NC(=O)[C@H](C)NC(=O)[C@H](CC(C)C)NC(=O)[C@H](C)NC1=O) [SEQ ID NO: 24]
Molar ellipticity at 207 nm [7]: −15165 deg.cm^2.dmol^−1.residue^−1
[θ]190 [7]: 46621 deg.cm^2.dmol^−1.residue^−1
[θ]215 [7]: −14798 deg.cm^2.dmol^−1.residue^−1
θ215/θ207 [7]: 0.98
percentage helicities: 91%
Relative helicity [8]: 1.00

Compound: Ac-(cyclo-2,6)-R[KAMAD]-NH2 (Ac-RKAMAD-NH2; lactam 2-6; SMILES CSCC[C@@H]1NC(=O)[C@H](C)NC(=O)[C@@H](NC(=O)[C@H](CCCNC(=N)N)NC(C)=O)CCCCNC(=O)C[C@@H](C(N)=O)NC(=O)[C@H](C)NC1=O) [SEQ ID NO: 25]
Molar ellipticity at 207 nm [7]: −12296 deg.cm^2.dmol^−1.residue^−1
[θ]190 [7]: 38464 deg.cm^2.dmol^−1.residue^−1
[θ]215 [7]: −11853 deg.cm^2.dmol^−1.residue^−1
θ215/θ207 [7]: 0.96
percentage helicities: 73%
Relative helicity [8]: 0.80
